According to the nanobody polyreactivity screen of Harvey et al. (2022):

test: yeast display, Sf9 membrane polyspecificity reagent, FACS + sequencing; frameworks hold sequencing errors
Summary of the method: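 Polyreactivity labels are assigned by the sorting gate from which each nanobody was recovered. The gates were low and high (top ~1%), set on anti-HA fluorescence for expression and streptavidin fluorescence for reagent binding. Before sorting, galactose-induced (36–48 hours) yeast display cells were stained for 1 hour at 4 °C with 10% biotinylated, detergent-solubilized Sf9 membrane reagent.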

Sequence	polyreactivity (PSR sort gate)
QVQLVESGGGLVQAGGSLRLSCAASGRIFWGNGMGWYRQAPGKEREFVAAISKSGGSTYYADSVKGRFTISRDNAKNTVYLQMNSLKPEDTAVYYCNARTSRYRRGGDSWGQGTQVTVSS	high polyreactivity
QVQLVESGGGLVQAGGSLRLSCAASGRIFWGYAMGWYRQAPGKERELVARITSGGDTYYADSVKGRFTISRDNAKNTVYLQMNSLKPEDTAVYYCAISTAVKPYAYRESGFIYDYWGQGSQVTVSS	low polyreactivity
QVQLVESGGGLVQAGGSLRLSCAASGRIFWGYVMGWYRQAPGKERELVAAISSGGDTHYADSVKGRFTISRDNAKKTVYLQMNSLKPEDTAVYYCAARPNFTPYEYGYWGQGTQVTVSS	low polyreactivity
QVQLVESGGGLVQAGGSLRLSCAASGRIFWPNAMGWYRQAPGKERELVAAISYSGGSTYYADSVKGRFTISRDNAKNTVYLQMNSLKPEDTAVYYCAATRSVRISGDGYLGYDYWGQGTQVTVSS	high polyreactivity
QVQLVESGGGLVQAGGSLRLSCAASGRIFWQNAKGWYRQAPGKERELVAAISSRGGTTYYADSVKGRFTISRDNAKNTVYLQMNRLKPEDTAVYYCNAALLLRYRGFFTVAAYDYWGQGTQVTVSS	low polyreactivity
QVQLVESGGGLVQAGGSLRLSCAASGRIFWSYAMGWYRQAPGKERELVAAITWRTGRTYYADSVKGRFTISRDNAKNTVYLQMNSLKPEDTAVYYCAAEGYLWGQSYNGLNYDSWGQGTQVTVSS	low polyreactivity
QVQLVESGGGLVQAGGSLRLSCAASGRIFWTNAMGWYRQAPGKERELVAAISYRGGRTYYADSVKGRFTISRDNAKNTVYLQMNSLKPEDTAVYYCAAFTAQGPKYDYWGQGTQVTVSS	high polyreactivity
QVQLVESGGGLVQAGGSLRLSCAASGRIFWTNAMGWYRQEPGKERELVAAISYNGASTFYADSVKGRFTISLDNAKNTVNLQMNSLKPEDTAVYSCNAYSSRYRYNYWGQGTQVTVSS	high polyreactivity
QVQLVESGGGLVQAGGSLRLSCAASGRIFWTYAMGWYRQAPGKERELVASITWSGGTTYYADSVKGRFTISRDNAKNTVYLQMNSLKTEDTAVYYCNTDVLAPYDSGYWGQGTQVTVSS	low polyreactivity
QVQLVESGGGLVQAGGSLRLSCAASGRIFWVYAMGWYRQAPGKERELVAAISLSGGLTYYADSVKGRFTITRDNAKNTVYLQMNSLKPEDTAVYYCNAVYPKRGGGRIVDYWGEGTQVTVSS	high polyreactivity
QVQLVESGGGLVQAGGSLRLSCAASGRIFWYYAMGWSRQAPGKERELVATISYGGGNTYYADSVKGRFTISRDNAKNTVYLQMNSLKPEDTAVYYCARVPYAYLPYKPFQQYSYDYWGQGTQVTVSS	high polyreactivity
QVQLVESGGGLVQAGGSLRLSCAASGRIFWYYAMGWYRQAPGKERELVAAISRSGGSTYYADSVKGRFTISRDNAKNTVYLQMNSLKPEDTAVYYCAAGARAFDDDSWGQGTQVTVSS	low polyreactivity
QVQLVESGGGLVQAGGSLRLSCAASGRIFWYYAMGWYRQAPGKERELVAAITKSGGSTYYADSVKGRFTISRDYAKNTVYLQMNSLKPEDTAVYYCAAPTWTRSSFDYWGQGTQVTVSS	high polyreactivity
QVQLVESGGGLVQAGGSLRLSCAASGRIFWYYAMGWYRQAPGKERELVATISSGGRTNYADSVKGRCTISRDNAKNTVYLQMNSLKPEDTAVYYCAAKHPISTLYDYWGQGTQVTVSS	high polyreactivity
QVQLVESGGGLVQAGGSLRLSCAASGRIFWYYAMGWYRQAPGKERELVATISYGGGNTYYADSVKGRFTISRDNAKNTVYLQMNSLKPEDTAVYYCARVPYAYLPYKPFQQYSYDYWGQGTQVTVSS	high polyreactivity
QVQLVESGGGLVQAGGSLRLSCAASGRIFWYYAMVWYRQAPGKERELVATISSRSGSTYYADSVKGRFTISRDNAKNTVYLQMNSLKPEDTAVYYCAAGTPYYLGYRHNYWGQGTQVTVSS	high polyreactivity
QVQLVESGGGLVQAGGSLRLSCAASGRIFWYYTMGWYRQAPGKERELVASINSDTGTYYADSVKGRFTISRDNAKNTVYLQMNSLKPEDTAVYYCNKDDYALSNTWRPEYDYWGQGTQVTVSS	low polyreactivity
QVQLVESGGGLVQAGGSLRLSCAASGRIFYANAMGWYRQAPGKERELVAAISSGGSTYYADSVKGRFTISRDNAKNTVYLQMNSLKPEDTAVYYCATDYQSTSVWGGHFVINPYDYWGQGTQVTVSS	low polyreactivity
QVQLVESGGGLVQAGGSLRLSCAASGRIFYAYAKGWYRPAPGKEREVVAAITRGGSTYYADSVKGRFTISRDNAKNTVYLQLNCLKREDTAVYSWAAQGYAPPLGESLGYWGEGTQVTVSS	low polyreactivity
QVQLVESGGGLVQAGGSLRLSCAASGRIFYAYAMGGYRQAPGKERELVASISGGGSTDYADSVKGRFTISRDNAMNTVYLQMNSLKPEDTAVYDCAAKRISYYSYNFDYWGEGTQVTVSS	high polyreactivity
QVQLVESGGGLVQAGGSLRLSCAASGRIFYAYAMGWYRQAPGKERELVAAISSSGRTYYADSVKGRFTISRDNAKNTVYLQMNSLKPEDTAVYYCAAPGSPYGYWGQGTQVTVSS	high polyreactivity
QVQLVESGGGLVQAGGSLRLSCAASGRIFYAYAMGWYRQAPGKERELVAAITARGGSTYYADSVKGRFTISRDNAKTTVYLQMNSLKPEDTAVYYCAKDTLLETGYEYWGQGTQVTVSS	high polyreactivity

Sequence	polyreactivity (PSR sort gate)
QVQLVESGGGLVQAGGSLRLSCAASGRIFYAYTMGRSRQAPGKERELVAAISGSGSTYYADSVKGRFTISRDNAKNTVYLQMNSLKPEDTAVYYCAADVTGGRKYDYWGQGTQVTVSS	low polyreactivity
QVQLVESGGGLVQAGGSLRLSCAASGRIFYDNTMGWYRQAPGKERELFAAITWRVGNTNYADSVKGRFTISRDNAKNTVYLQMNSLNPEDTAVYYCAVRLLADDGYPAVVGYDYWGQGTQVTVSS	low polyreactivity
QVQLVESGGGLVQAGGSLRLSCAASGRIFYFNAMGWYRQAPGKERELVADISTGGRTNYADSVKGRFTISRDNAKNTVYLQMNSLNPEDTAVYYCNAEPYTSSGGYRGYDFDYWGQGTQVTVSS	low polyreactivity
QVQLVESGGGLVQAGGSLRLSCAASGRIFYFNTMGWYRQAHGKEIELVAAITRNGGSTYYADSVKWRFTISRDNAKNTVYFQMNSLKPEDTAVYYCNARYRAAKRGKAWYRYDYWGQGTQVTVSS	high polyreactivity
QVQLVESGGGLVQAGGSLRLSCAASGRIFYFNTMGWYRQAPGKERELVAAITGSGSSTYYADSVKGRFTISRDNAKNTVYLQMNSLKPEDTAVYYCAAYGFSRNGYTYGHDDWGQGTQVTVSS	low polyreactivity
QVQLVESGGGLVQAGGSLRLSCAASGRIFYFYAMGWYRQAPGKERELVAAITSGGGTYYADSVKGRFTISRDNAKNTVYLQMNSLKPEDTAVYYCDVRVYRTSWQGYYYWGQGTQVTVSS	high polyreactivity
QVQLVESGGGLVQAGGSLRLSCAASGRIFYGNAMGWYRQAPGKERELVAAISKRGGSTHYADSVKGRFTISRDNAKNPVYLQMNSLKPEDTAVDYCATDSYYVGAVHYYYWGQGTQVTVSS	high polyreactivity
QVQLVESGGGLVQAGGSLRLSCAASGRIFYGNAMGWYRQAPGKERELVATISSSGGRTTYADSVKGRFTISRDNAKNTVYLQMNSLKPEDTAVYYCADQGYWTGYDYWGQGTQVTVSS	high polyreactivity
QVQLVESGGGLVQAGGSLRLSCAASGRIFYGNAMGWYRQPPGKERELFAGITRSSGTSTYYADSVKVRFTISRDNAKYTVYLQMNSMNPEDTAVYYCAAPPDSYYYYKVPVVPYDYWGQGTQVTVSS	low polyreactivity
QVQLVESGGGLVQAGGSLRLSCAASGRIFYGNAMGWYRQSPGKERELVASITSSGSTKYADSVKGRFTISRDNAKNTVYLQMNSLKPEDTAVYYCAASSTKRYDTYAGYDYWGQGTQVTVSS	low polyreactivity
QVQLVESGGGLVQAGGSLRLSCAASGRIFYGNTLGWYRQAPGKERELVAAISSGGSTNYADSVKGRFTISRDNAKNTVYLQMNSLKPEDTAVYYCAAAGRPGGYVQRDSWGQGTQVTVSS	high polyreactivity
QVQLVESGGGLVQAGGSLRLSCAASGRIFYGNTMGWYRPAPGKERELVAAITGSGTSTYYADSVKGRFTISRDNAKNTVYLQMNSLKPEDTAVYYCNADRPVYVDYINGGYGYWGQGTQVTVSS	low polyreactivity
QVQLVESGGGLVQAGGSLRLSCAASGRIFYGNTMGWYRQAPGKERELVAAITWRGGSTYYADSVKGRFTISRDNAKITVYLQMNSLKPEDTAVYYCAAVSYRGRGYWGQGTQVTVSS	high polyreactivity
QVQLVESGGGLVQAGGSLRLSCAASGRIFYGYAMGWYRKAPVKEREFVAAITVSAGSTYYADSVKGRFTISRDNAKNTVYLLMNSLKPEDTAVYYCASKRYVYPSYRFDYWGQGTQVSVSS	low polyreactivity
QVQLVESGGGLVQAGGSLRLSCAASGRIFYGYAMGWYRQAPGKERELVAAISWRGDSTYYADSVKGRFTISRDNAKNTVYLQMNSLKPEDTAVYYCAARRPGYYYPSKFDYWGQGTQVTVSS	high polyreactivity
QVQLVESGGGLVQAGGSLRLSCAASGRIFYGYAMGWYRQAPGKERELVAAITWIDGSTYYADSVKGRFTISRDNAKNTVYLQMNSLKPEDTAVYFCNKTWYGDSGTRTYWGQVTQVTVSS	low polyreactivity
QVQLVESGGGLVQAGGSLRLSCAASGRIFYGYAMGWYRQAPGKERELVAAITYIGGPYYADSVKGRFTISRDNAKNTVYFQMNSQKPEDTAVYYCATEPFYTYGYYTYPYWYDYWGQGTQVTVSS	low polyreactivity
QVQLVESGGGLVQAGGSLRLSCAASGRIFYGYTMGWYRQAPGKERELVASITIRGSRTYYADSVKGRFTISRDNAKNTVYLQMNSLKPEDTAVYSCAADFVPARTVHRYDYWGQGTQVTVSS	low polyreactivity
QVQLVESGGGLVQAGGSLRLSCAASGRIFYHNAMGWYRQAPGKERELVAAIRWSGGSTYYADSEKGRFTISRDNAKNTVYLLMKSLKPEDTAVYYWATDVPIREIDEFGYWGQGTQVTVSS	low polyreactivity
QVQLVESGGGLVQAGGSLRLSCAASGRIFYHYAMGWYRQAPGKERELVAAITSSGAGTYYADSVKGRFTISRDNAKNTVYLPMNSLKPEDTAVYYCAARRYAWLHSYDMYYWGHGTQVTVSS	high polyreactivity
QVQLVESGGGLVQAGGSLRLSCAASGRIFYHYAMGWYRQAPGKERELVATINSSGTSTYYADSVKGRFTISRDNAKNTVYLQMNSLKPEDTALYYCAASTYNKMYYWGQGTHVTVSS	high polyreactivity
